19 sequences from patent US20160177307 can be followed below.

For data set [1], the target named is PDGF-BB (platelet-derived growth factor BB) (Homo sapiens) (UniProt P01127). Briefly: filter.
For data set [2], the target named is PDGF-AB (UniProt P04085+P01127). Briefly: filter.
Data set [3] concerns T1, VEGF-165 (Homo sapiens), P15692-4.
T1 sequence: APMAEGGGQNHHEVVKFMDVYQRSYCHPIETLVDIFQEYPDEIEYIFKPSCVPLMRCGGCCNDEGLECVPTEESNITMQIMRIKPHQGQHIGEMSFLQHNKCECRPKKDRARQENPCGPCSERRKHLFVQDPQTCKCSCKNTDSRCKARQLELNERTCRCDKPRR
Briefly: filter.

Data set [4] has as its system T2, VEGF-121 (Homo sapiens), P15692-9.
T2 sequence: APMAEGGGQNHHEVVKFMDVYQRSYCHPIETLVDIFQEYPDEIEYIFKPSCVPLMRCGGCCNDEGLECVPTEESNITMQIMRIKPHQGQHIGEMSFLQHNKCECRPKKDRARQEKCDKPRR
Briefly: filter.

In data set [5] the test system is T3, VEGF-164 (Rattus norvegicus), P16612-2.
T3 sequence: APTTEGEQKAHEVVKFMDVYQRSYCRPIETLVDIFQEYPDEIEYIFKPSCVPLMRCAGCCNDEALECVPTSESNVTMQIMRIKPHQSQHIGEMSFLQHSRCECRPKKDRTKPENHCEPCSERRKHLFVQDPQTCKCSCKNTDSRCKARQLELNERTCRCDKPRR
The experiment in a line: filter. The settings on record: P=Nap-dU.

Data set [6] relates to T2, VEGF-121 (Homo sapiens), P15692-9. The experiment in a line: cell_activity. Particulars: NapdU at P, VEGFR2 phosphorylation, HUVEC.
For data set [7], the system named is T4, rVEGF164, P16612-2.
T4 sequence: T3 sequence
The experiment in a line: filter. The settings on record: rest DNA, SB18T, 37 C.

The test system of data set [8] is T2, VEGF-121 (Homo sapiens), P15692-9. Briefly: competition. The settings on record: Nap-dU, 2'-OMe; head-to-tail dimer, no linker; VEGF isoform not given.
In data set [9] the target is PDGF-BB (platelet-derived growth factor BB) (Homo sapiens) (UniProt P01127). The experiment in a line: cell_activity.
Data set [10] shares this target. Briefly: competition.
The mark [11] stands for this setting: all P are NapdU, rest DNA, SB18T, 37 C.
Where [12] appears, read: NapdU at 6,7,12,15,16,18,23,24,25,29, rest DNA, SB18T, 37 C.
Where [13] appears, read: Z BndU, P NapdU, 2'-OMe at superscript-1 positions, C3 spacers, three Heg linkers.

Sequence of PDGF-AB (P01127 82-190, chain 2 of 2, other chains not shown): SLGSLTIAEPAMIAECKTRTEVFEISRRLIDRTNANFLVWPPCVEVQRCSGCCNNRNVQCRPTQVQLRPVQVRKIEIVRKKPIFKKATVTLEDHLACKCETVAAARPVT
Sequence of PDGF-BB (platelet-derived growth factor BB) (Homo sapiens) (P01127 82-190): as the sequence (P01127 82-190, chain 2 of 2, other chains not shown) above

Consider “AGCCGTTCAAGTGCTTGTAGGATTTAAATGG [4867-31_51]”, for which the Kd is 126 nM in data set [1] (all P are NapdU, rest DNA, specificity control); 14.8 nM in data set [2] (P=Nap-dU); 0.196 nM in data set [3] (P=Nap-dU, VEGF); 0.11 nM in [3] (setting [11]); 0.2 nM in data set [4] (all P are NapdU, rest DNA, SB18T, 37 C, Table 18 gives 728 pM); 0.074 nM in data set [5].
In turn, “AGCCGTTCAAGTGCTTGTAGGATTTAAATGGA [4867-31_43]” came in with an IC50 in [6] of 2.2 nM. For the same sequence, the Kd turned out to be 0.05 nM in data set [7] (NapdU at 6,7,12,15,16,18,23,24,25,29), 0.05 nM in data set [3] (setting [12]) and 0.29 nM in data set [4] (setting [12]).
The sequence “CAGCCGTTCAAGTGCTTGTAGGATTTAAA [4867-31_47]” returned a Kd in data set [7] (all P are NapdU) of 83 nM.
In the case of “CAGCCGTTCAAGTGCTTGTAGGATTTAAAT [4867-31_46]”, the values for the Kd in [7] (all P are NapdU) and in [3] (setting [11]) were 9.6 nM and 5.9 nM, respectively.
As to “CAGCCGTTCAAGTGCTTGTAGGATTTAAATGGA [4867-31_42]”, the Kd in data set [7] (all P are NapdU) is 0.05 nM; in data set [3] (setting [11]), 0.071 nM; in [4] (setting [11]) it was 0.2 nM.
“CCGTTCAAGTGCTTGTAGGATTTAAATGG [4867-31_192]”: in data set [6] (2'-OMe 6,9,12,15,17,18,22,28,29), the IC50 amounted to 2.1 nM. The Kd in data set [1] (NapdU at 4,5,10,13,14,16,21,23,27, 2'-OMe at C6,G9,C12,G15,A17,G18,G28,G29 and 2'-OMe-NapU22, 3'-inverted dT in Tables 26-27, specificity control, off-target PDGF-BB) was determined as 57 nM; in data set [3] (NapdU at 4,5,10,13,14,16,21,23,27, 2'-OMe at C6,G9,C12,G15,A17,G18,G28,G29 and 2'-OMe-NapU22, 3'-inverted dT in Tables 26-27, 5'-OH form), 0.041 nM; in data set [4] (NapdU at 4,5,10,13,14,16,21,23,27, 2'-OMe at C6,G9,C12,G15,A17,G18,G28,G29 and 2'-OMe-NapU22, 3'-inverted dT in Tables 26-27, 3'-idT, Table 27 gives 3.1E-11, Table 21 2.3E-11) it was 0.011 nM.
Consider “CCGTTCAAGTGCTTGTAGGATTTAAATGGCCGTTCAAGTGCTTGTAGGATTTAAATGG [4867-31_395]”, for which the Ki in [8] worked out at 0.0068 nM.
In the case of “CCGTTCAAGTGCTTTAGATTTAAATGGTTACGTTACACGCGTTTATAGC [4149-8_315]”, the Kd in data set [1] (VEGF-2Heg-PDGF, NapdU, BndU) amounted to 0.119 nM; in data set [2] (VEGF-2Heg-PDGF, NapdU, BndU), 0.123 nM; in data set [3] (Nap-dU, Bn-dU, C3, 2 Heg linker, 2'-OMe, VEGF), 0.086 nM; in [4] (VEGF-2Heg-PDGF, NapdU, BndU), 0.758 nM.
On to “CCGTTCAAGTGCTTTAGATTTAAATGGTTACGTTACACGCGTTTATAGC [4149-8_316]”, for which the Kd in [1] (VEGF-3Heg-PDGF, NapdU, BndU) stood at 0.0897 nM; in data set [2] (VEGF-3Heg-PDGF, NapdU, BndU) it was 0.137 nM; in data set [3] (Nap-dU, Bn-dU, C3, 3 Heg linker, 2'-OMe, VEGF), 0.157 nM; in data set [4] (VEGF-3Heg-PDGF, NapdU, BndU), 0.5 nM.
For CGACAGCATGTATGCACATCT [5169-4_26], in [9] (NapdU (5-(N-naphthylmethylcarboxamide)-2'-deoxyuridine) at 9,11,13,19,21, rest DNA, inhibition of PDGFRbeta phosphorylation), the IC50 amounted to 1.6 nM. Moreover, the Kd in data set [1] (NapdU (5-(N-naphthylmethylcarboxamide)-2'-deoxyuridine) at 9,11,13,19,21, rest DNA, SB18T, 37 C) was found to be 0.017 nM.
In [9] (NapdU at P, 2'-OMe 1,4,6,7,14,15,16,18,20,21, PDGFRb phosphorylation, Hs27), CGACAGCATGTATGCACATCT [5169-4_84] yielded an IC50 of 3.3 nM. In [1] (NapdU at P, 2'-OMe 1,4,6,7,14,15,16,18,20,21), this sequence showed a Kd of 0.0053 nM.
In turn, CGACAGCATGTATGCACATCT [5169-4_85] registered an IC50 in data set [9] (NapdU at P, 2'-OMe 1,4,6,7,11,14-18,20,21, PDGFRb phosphorylation, Hs27) of 7.3 nM. This sequence also came in with a Kd in data set [1] (NapdU at P, 2'-OMe 1,4,6,7,11,14-18,20,21) of 0.0062 nM.
For the sequence CGACAGCATGTATGCACATCT [5169-4_112], the IC50 in data set [9] (NapdU at 9,11,13,19, 2'-OMe G14,A16 and 2'-OMe-NapU21, inhibition of PDGFRbeta phosphorylation) stood at 1 nM. The sequence also gave a Kd in data set [1] (NapdU at P, 2'-OMe 14,16,21) of 0.0062 nM.
Consider CGACAGCATGTATGCACATCT [5169-4_188], for which the Ki in [10] (as 5169-4_146 plus PS 3' of 4,9,10,11,12, 3'-idT, competition with 32P ligand, SB18T, 37 C) came out at 0.0086 nM.
In turn, “CGACAGCATGTATGCACATCTCGACAGCATGTATGCACATCT [5169-4_134]” had a Ki in data set [10] (Nap-dU, head-to-tail dimer, no linker) of 0.028 nM.
For “TTACGTTACACGCGTTTATAGCGCCGTTCAAGTGCTTTAGATTTAAATG [4149-8_318]”, the Kd came to 0.0431 nM in [1] (PDGF-1Heg-VEGF, NapdU, BndU); 0.0818 nM in data set [2] (PDGF-1Heg-VEGF, NapdU, BndU); 0.27 nM in [3] (Bn-dU, Nap-dU, C3, 1 Heg linker, 2'-OMe, VEGF); 2.47 nM in [4] (PDGF-1Heg-VEGF, NapdU, BndU).
For the sequence “TTACGTTACACGCGTTTATAGCGCCGTTCAAGTGCTTTAGATTTAAATG [4149-8_319]”, the Kd in [1] (PDGF-2Heg-VEGF, NapdU, BndU) came to 0.0242 nM; in data set [2] (PDGF-2Heg-VEGF, NapdU, BndU), 0.0302 nM; in [3] (Bn-dU, Nap-dU, C3, 2 Heg linker, 2'-OMe, VEGF), 0.125 nM; in data set [4] (PDGF-2Heg-VEGF, NapdU, BndU), 1.07 nM.
In the case of “TTACGTTACACGCGTTTATAGCGCCGTTCAAGTGCTTTAGATTTAAATG [4149-8_320]”, the Kd came out at 0.015 nM in [1] (setting [13]); 0.0493 nM in [2] (PDGF-3Heg-VEGF, NapdU, BndU); 0.0768 nM in [3] (PDGF-3Heg-VEGF, NapdU, BndU); 0.422 nM in data set [4] (setting [13]).
Consider “TTACGTTACCGCGTTTATAGCGCCGTTCAAGTGCTTGTAGGATTTAAATGG [4149-8_401 (PDGF_379-HHH-VEGF_192)]”, for which the Kd came to 0.0056 nM in data set [1] (Z BndU, P NapdU, M MBndU, superscript 1 2'-OMe, C3 spacer, Heg linkers, 5'-amine, Table 20 gives 1.51E-11); 0.193 nM in data set [2] (Z BndU, P NapdU, M MBndU, superscript 1 2'-OMe, C3 spacer, Heg linkers, 5'-amine); 0.025 nM in data set [3] (Z BndU, P NapdU, M MBndU, superscript 1 2'-OMe, C3 spacer, Heg linkers, 5'-amine, Table 20 gives 2.77E-10); 0.027 nM in data set [4] (Z BndU, P NapdU, M MBndU, superscript 1 2'-OMe, C3 spacer, Heg linkers, 5'-amine, Table 20 gives 3.74E-11).

For orientation: Kd means a measure of binding affinity in units of concentration. Higher therefore signals lower affinity. Usually IC50 stands for the concentration needed to halve the response being measured. A higher IC50 goes with weaker potency in that assay. By Ki is commonly meant a dissociation constant, usually derived from enzyme kinetics or from competition with a known ligand.
